Measured values: patent publication US20090192289A1 (Genentech, published 2009)
Where no end group is shown, it is not given here.

T1: GST-Omi PDZ fusion protein (human, UniProt O43464 359-458)
T1 construct: also called GST-hOmiPDZ; hOmi PDZ domain; not shown: glutathione S-transferase (GST) encoded by plasmid pGEX6P-3
T1 sequence: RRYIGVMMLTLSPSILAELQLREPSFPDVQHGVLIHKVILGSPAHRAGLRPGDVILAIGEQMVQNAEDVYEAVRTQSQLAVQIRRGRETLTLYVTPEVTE

B1: hOmi_c2 (peptide)
peptide: Ac-RFPHFWV-OH
notes: synthetic peptide from libC; also called RFPHFWV
B2: PDZ-Opt (peptide)
peptide: Ac-GQYYFV-OH
notes: synthetic peptide, optimized ligand reported previously from a chemically synthesized library; also called GQYYFV
B3: hOmi_c1 (peptide)
peptide: Ac-SWTMFWV-OH
notes: synthetic peptide from libC; also called SWTMFWV
B4: libC phage-displayed peptide KVASWTMFWV (peptide)
chain: KVASWTMFWV
modifications: not fully specified
notes: 42 siblings; not shown: M13 gene-8 major coat protein (P8)
B5: libC phage-displayed peptide WLDRFPHFWV (peptide)
chain: WLDRFPHFWV
modifications: not fully specified (N-terminus)
notes: 15 siblings; not shown: M13 gene-8 major coat protein (P8)
B6: libC phage-displayed peptide SEQ ID NO:27 (peptide)
chain: PGRWGPFFWV
modifications: not fully specified
notes: not shown: M13 gene-8 major coat protein (P8)
B7: libC phage-displayed peptide SEQ ID NO:28 (peptide)
chain: DSLLFDFWWA
modifications: not fully specified
notes: as for B6
B8: libC phage-displayed peptide SEQ ID NO:29 (peptide)
chain: NQRVWIFWLI
modifications: not fully specified
notes: as for B6
B9: libC phage-displayed peptide SEQ ID NO:30 (peptide)
chain: SSFFRFWFV
modifications: not fully specified
notes: as for B6
B10: libC phage-displayed peptide SEQ ID NO:31 (peptide)
chain: DRLNWLFFWI
modifications: not fully specified
notes: as for B6
B11: libC phage-displayed peptide SEQ ID NO:32 (peptide)
chain: YPTYWTFWWV
modifications: not fully specified
notes: as for B6
B12: libC phage-displayed peptide SEQ ID NO:33 (peptide)
chain: LYSIYRFFWA
modifications: not fully specified
notes: as for B6
B13: libC phage-displayed peptide SEQ ID NO:34 (peptide)
chain: FLGFLEFFWI
modifications: not fully specified
notes: as for B6
B14: libC phage-displayed peptide SEQ ID NO:35 (peptide)
chain: SFYILRYFWV
modifications: not fully specified
notes: as for B6
B15: libC phage-displayed peptide SEQ ID NO:36 (peptide)
chain: TMSDWLFWWA
modifications: not fully specified (N-terminus)
notes: as for B6
B16: libC phage-displayed peptide SEQ ID NO:38 (peptide)
chain: TRANWLFFWV
modifications: not fully specified (N-terminus)
notes: as for B6
B17: libC phage-displayed peptide SEQ ID NO:39 (peptide)
chain: RIPFLFFLWA
modifications: not fully specified (N-terminus)
notes: as for B6
B18: libC phage-displayed peptide SEQ ID NO:40 (peptide)
chain: SKLRLFFMWV
modifications: not fully specified (N-terminus)
notes: as for B6
B19: libC phage-displayed peptide SEQ ID NO:41 (peptide)
chain: TGMSWTIWFL
modifications: not fully specified (N-terminus)
notes: as for B6
B20: libC phage-displayed peptide SEQ ID NO:42 (peptide)
chain: SLLNWVLYLV
modifications: not fully specified (N-terminus)
notes: as for B6
B21: libC phage-displayed peptide SEQ ID NO:43 (peptide)
chain: GLMPLLFFWV
modifications: not fully specified (N-terminus)
notes: as for B6
B22: libC phage-displayed peptide SEQ ID NO:44 (peptide)
chain: TVHSWFLWFV
modifications: not fully specified (N-terminus)
notes: as for B6
B23: libC phage-displayed peptide SEQ ID NO:45 (peptide)
chain: WVDSCPIFWV
modifications: not fully specified (N-terminus)
notes: as for B6
B24: libC phage-displayed peptide SEQ ID NO:46 (peptide)
chain: IPLHWIFYLV
modifications: not fully specified (N-terminus)
notes: as for B6
B25: libN phage-displayed peptide WEWIGMEWG (peptide)
chain: WEWIGMEWG
modifications: not fully specified (C-terminus)
notes: 31 siblings; not shown: M13 gene-8 major coat protein (P8)
B26: libN phage-displayed peptide SEQ ID NO:49 (peptide)
chain: SHWWGGWLG
modifications: not fully specified (C-terminus)
notes: 17 siblings; not shown: M13 gene-8 major coat protein (P8)
B27: libN phage-displayed peptide SEQ ID NO:50 (peptide)
chain: ATEFWWGVG
modifications: not fully specified (C-terminus)
notes: 10 siblings; not shown: M13 gene-8 major coat protein (P8)
B28: libN phage-displayed peptide GIAGFWWDG (peptide)
chain: GIAGFWWDG
modifications: not fully specified (C-terminus)
notes: 9 siblings; not shown: M13 gene-8 major coat protein (P8)
B29: libN phage-displayed peptide SEQ ID NO:56 (peptide)
chain: WIAGFWWDG
modifications: not fully specified (C-terminus)
notes: as for B6
B30: libN phage-displayed peptide ESLWWGWEG (peptide)
chain: ESLWWGWEG
modifications: not fully specified (C-terminus)
notes: 7 siblings; not shown: M13 gene-8 major coat protein (P8)
B31: libN phage-displayed peptide GGFWWGPAG (peptide)
chain: GGFWWGPAG
modifications: not fully specified (C-terminus)
notes: 5 siblings; not shown: M13 gene-8 major coat protein (P8)
B32: libN phage-displayed peptide AGDSWWWGG (peptide)
chain: AGDSWWWGG
modifications: not fully specified (C-terminus)
notes: 4 siblings; not shown: M13 gene-8 major coat protein (P8)
B33: libN phage-displayed peptide SEQ ID NO:51 (peptide)
chain: WGYWWGPGG
modifications: not fully specified (C-terminus)
notes: as for B6
B34: libN phage-displayed peptide SEQ ID NO:52 (peptide)
chain: STDYWWGCG
modifications: not fully specified (C-terminus)
notes: as for B6
B35: libN phage-displayed peptide SEQ ID NO:54 (peptide)
chain: SSDYWWGCG
modifications: not fully specified (C-terminus)
notes: as for B6
B36: libN phage-displayed peptide SEQ ID NO:53 (peptide)
chain: GDIVCTWGG
modifications: not fully specified (C-terminus)
notes: as for B6
B37: libN phage-displayed peptide SEQ ID NO:55 (peptide)
chain: GIVWFWWDG
modifications: not fully specified (C-terminus)
notes: as for B6

molecular target: T1, GST-Omi PDZ fusion protein; test: competition ELISA, 20 nM GST-Omi PDZ, immobilized biotin-GWTMFWV as competitor
Protocol: (§1) Affinity Assays—The binding affinities of peptides for Omi PDZ were determined as IC₅₀ values using a previously described competition ELISA(18). The IC₅₀ value was defined as the concentration of peptide that blocked 50% of PDZ domain binding to immobilized peptide. Assay plates were prepared by immobilizing an amino-terminally biotinylated peptide (biotin-GWTMFWV) on maxisorp plates coated with NeuTravidin and blocked with BSA. A fixed concentration of GST-Omi PDZ fusion protein (20 nM) in PBS, 0.5% BSA, 0.1% Tween 20 (PBT buffer) was preincubated for 1 h with serial dilutions of peptide and then transferred to the assay plates. After 1 h incubation, the plates were washed with PBS, 0.05% Tween 20, incubated for 30 min with HRP/anti-GST antibody (1:10,000) in PBT buffer, washed again, and detected with 3,3′,5,5′-Tetramethyl-benzidine/H₂O₂ (TMB) peroxidase substrate.

Row | Binder | IC50 [µM]
1 | Ac-MFWV-OH (also called MFWV) [hOmi_c1_t3] | 24.1
2 | H-ATEFWWGVG-NH2 (synthetic peptide from libN) [hOmi_n4] | 32.4
3 | H-SHWWGGWLG-NH2 (synthetic peptide from libN) [hOmi_n1] | 21.6
4 | H-SHWWGGWL-NH2 [hOmi_n1_t1] | 17.6
5 | H-SHWWGGW-NH2 (also called SHWWGGW) [hOmi_n1_t2] | 26
6 | H-SHWW-NH2 (also called SHWW; tetrapeptide (SHWW)) [hOmi_n1_t5] | 72.2
7 | B1 | 162
8 | B2 | 17.6
9 | B3 | 3.3
10 | Ac-SWTMFWA-OH (also called SWTMFWA) [hOmi_c1_A1] | 10.6

molecular target: T1, GST-Omi PDZ fusion protein; test: competition ELISA
Protocol: as §1

Row | Binder | fold lower affinity vs … (hOmi_n1) [fold] | fold lower affinity vs SWTMFWV (hOmi_c1) [fold] | fold lower affinity vs the optimized peptide derived from libC (hOmi_c1) [fold] | fold increase of IC50 vs SWTMFWV (hOmi_c1) [fold] | binding result | fold reduction of binding affinity vs … (hOmi_n1) [fold]
11 | H-SHWW-NH2 (also called SHWW; tetrapeptide (SHWW)) [hOmi_n1_t5] | 3 |  |  |  |  | 
12 | B1 |  | 50 |  |  |  | 
13 | B2 |  |  | 5 |  |  | 
14 | Ac-SWTMFWA-OH (also called SWTMFWA) [hOmi_c1_A1] |  |  |  | 3 |  | 
15 | Ac-AWTMFWV-OH (also called AWTMFWV) [hOmi_c1_A7] |  |  |  |  | binds | 
16 | Ac-WTMFWV-OH (also called WTMFWV) [hOmi_c1_t1] |  |  |  |  | binds | 
17 | Ac-TMFWV-OH (also called TMFWV) [hOmi_c1_t2] |  | 15 |  |  |  | 
18 | H-HWWGGWLG-NH2 [hOmi_n1_t6] |  |  |  |  |  | 3

molecular target: T1, GST-Omi PDZ fusion protein; test: phage ELISA on GST-Omi PDZ after three rounds of selection
Protocol: Selection for Omi PDZ peptides—Previously described procedures were used to isolate peptides that bound to a GST-Omi PDZ fusion, using libraries of random decapeptides fused to either the C terminus(18) or octapeptide fused to the N terminus(19) of the M13 gene-8 major coat protein, designated as libC or libN, respectively. After three rounds of selection, individual clones were grown in a 96-well format in 500 μL of 2YT broth supplemented with carbenicillin, kanamycin and KO7, and the culture supernatants were used directly in phage ELISAs(19) to detect peptides that bound specifically to Omi PDZ. Peptide sequences derived from positive clones were aligned and tabulated. A total of 95 positive colonies from libC and 89 from libN were analyzed. (see Table II). […] The sequences were selected after three rounds of sorting with IPTG induction. Hydrophobic residues (A, F, I, L, M, V, W, Y) are italicized and bolded, n is the number of siblings.

Row | Binder | binding result
19 | B4 | binds
20 | B5 | binds
21 | B6 | binds
22 | B7 | binds
23 | B8 | binds
24 | B9 | binds
25 | B10 | binds
26 | B11 | binds
27 | B12 | binds
28 | B13 | binds
29 | B14 | binds
30 | B15 | binds
31 | B16 | binds
32 | B17 | binds
33 | B18 | binds
34 | B19 | binds
35 | B20 | binds

Row | Binder | binding result
36 | B21 | binds
37 | B22 | binds
38 | B23 | binds
39 | B24 | binds
40 | B25 | binds
41 | B26 | binds
42 | B27 | binds
43 | B28 | binds
44 | B29 | binds
45 | B30 | binds
46 | B31 | binds
47 | B32 | binds
48 | B33 | binds
49 | B34 | binds
50 | B35 | binds
51 | B36 | binds
52 | B37 | binds

molecular target: T1, GST-Omi PDZ fusion protein; test: competition ELISA, immobilized biotin-GWTMFWV
Protocol: as §1

Row | Binder | binding result
53 | H-SHWWGG-NH2 (also called SHWWGG) [hOmi_n1_t3] | no binding
